What was measured:
Agp2 = target: T1, Agp2 (Agrobacterium fabrum, UniProt A9CI81); assay: UV/vis absorbance after chromophore assembly and desalting; format: binding; conditions: covalent (Cys13); threefold molar excess BV, 2 h, RT, pH 7.8, 1 mM TCEP; Atto-495 labelled afterwards
T1 construct: gene Atu2165; full length (PAS-GAF-PHY-histidine kinase-response regulator), C-terminal His6, E. coli DH5-alpha, pAg2 (pET21b-based), purified apoprotein, homodimer
T1 sequence (A9CI81 1-850): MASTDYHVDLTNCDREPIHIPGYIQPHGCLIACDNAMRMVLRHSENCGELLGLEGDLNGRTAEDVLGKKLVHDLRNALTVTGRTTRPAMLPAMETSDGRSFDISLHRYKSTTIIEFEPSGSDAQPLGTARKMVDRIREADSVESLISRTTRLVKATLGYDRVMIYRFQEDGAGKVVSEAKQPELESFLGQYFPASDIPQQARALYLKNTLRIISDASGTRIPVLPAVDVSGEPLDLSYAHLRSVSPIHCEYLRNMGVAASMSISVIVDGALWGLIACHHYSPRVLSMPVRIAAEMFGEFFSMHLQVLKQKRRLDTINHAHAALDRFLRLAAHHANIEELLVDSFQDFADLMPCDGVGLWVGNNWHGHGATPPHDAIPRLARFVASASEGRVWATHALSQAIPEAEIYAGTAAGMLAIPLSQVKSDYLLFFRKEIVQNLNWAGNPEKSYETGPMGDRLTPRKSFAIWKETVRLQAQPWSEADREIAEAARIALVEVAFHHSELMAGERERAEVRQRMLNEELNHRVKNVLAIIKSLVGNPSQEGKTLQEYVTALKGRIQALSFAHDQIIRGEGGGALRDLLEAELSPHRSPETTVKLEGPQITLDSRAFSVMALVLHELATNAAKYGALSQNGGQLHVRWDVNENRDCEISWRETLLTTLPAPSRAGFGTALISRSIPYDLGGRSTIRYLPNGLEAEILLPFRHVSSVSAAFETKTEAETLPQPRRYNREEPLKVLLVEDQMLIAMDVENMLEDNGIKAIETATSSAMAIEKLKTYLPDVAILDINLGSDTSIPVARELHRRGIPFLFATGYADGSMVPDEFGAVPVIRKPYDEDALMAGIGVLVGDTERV

Agp2-PCM = target: T2, Agp2-PCM (Agrobacterium fabrum, UniProt A9CI81); assay: as above; format: binding; conditions: covalent (Cys13); threefold molar excess BV, 2 h, RT, pH 7.8, 1 mM TCEP; Atto-495 labelled afterwards
T2 construct: gene Atu2165; photosensory chromophore module (PAS, GAF, PHY)
T2 sequence (A9CI81 1-501): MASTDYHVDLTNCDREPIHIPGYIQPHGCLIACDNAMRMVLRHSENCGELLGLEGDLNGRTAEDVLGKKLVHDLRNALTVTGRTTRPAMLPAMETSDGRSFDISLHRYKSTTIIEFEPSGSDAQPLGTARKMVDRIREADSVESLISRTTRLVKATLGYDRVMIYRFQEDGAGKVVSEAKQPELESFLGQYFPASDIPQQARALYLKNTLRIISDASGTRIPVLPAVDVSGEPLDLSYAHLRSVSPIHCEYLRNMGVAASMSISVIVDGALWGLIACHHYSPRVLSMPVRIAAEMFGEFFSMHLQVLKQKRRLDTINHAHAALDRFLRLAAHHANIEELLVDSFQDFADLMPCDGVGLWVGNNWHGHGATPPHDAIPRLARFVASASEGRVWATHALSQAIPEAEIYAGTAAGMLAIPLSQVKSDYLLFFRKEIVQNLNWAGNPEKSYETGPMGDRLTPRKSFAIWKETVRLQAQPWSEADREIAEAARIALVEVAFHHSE
Source text: UV/vis absorbance after chromophore assembly and desalting on Agp2-PCM

[1] = target: Agp2, full length wild-type A. fabrum phytochrome, labeled with Atto-495 (Agrobacterium fabrum); assay: FRET or BRET
[2] = target: Agp2-PCM, photosensory chromophore module of Agp2, labeled with Atto-495 (Agrobacterium fabrum); assay: FRET or BRET

Molecule | E FRET (FRET transfer efficiency) [1] | further results
C=CC1=C(C)/C(=C/C2=NC(=C\c3[nH]c(/C=C4\NC(=O)C(C)=C4C=C)c(C)c3CCC(=O)O)/C(CCC(=O)O)=C2C)NC1=O [Biliverdin] |  | Agp2 (Agp2): 0.70 ± 0.04 mol/mol; Agp2 PCM (Agp2-PCM): 0.98 ± 0.01 mol/mol
Agp1 A362C, full-length A. fabrum phytochrome Agp1 mutant labeled with Atto-565 (natural protein) | 0.1 | 
Agp1 K517C, full-length A. fabrum phytochrome Agp1 mutant labeled with Atto-565 (natural protein) | 0.15 | E FRET (FRET transfer efficiency) [2]: 0.14
Agp1 K554C, full-length A. fabrum phytochrome Agp1 mutant labeled with Atto-565 (natural protein) | 0.28 | 
Agp1 R535C, full-length A. fabrum phytochrome Agp1 mutant labeled with Atto-565 (natural protein) | 0.21 | 
Agp1 R603C, full-length A. fabrum phytochrome Agp1 mutant labeled with Atto-565 (natural protein) | 0.2 | 
Agp1 S122C, full-length A. fabrum phytochrome Agp1 mutant labeled with Atto-565 (natural protein) | 0.09 | 
